In FireProtDB (doi:10.1002/pro.5560051112):
Several values for one entry are separate records, joined by “and”; a condition that tells them apart may be missing. Equal entries are not always repeated.

B1: Beta-glucanase wild type, P23904 (protein)
chain: MKKKSCFTLVTTFAFSLIFSVSALAGSVFWEPLSYFNRSTWEKADGYSNGGVFNCTWRANNVNFTNDGKLKLGLTSSAYNKFDCAEYRSTNIYGYGLYEVSMKPAKNTGIVSSFFTYTGPAHGTQWDEIDIEFLGKDTTKVQFNYYTNGVGGHEKVISLGFDASKGFHTYAFDWQPGYIKWYVDGVLKHTATANIPSTPGKIMMNLWNGTGVDDWLGSYNGANPLYAEYDWVKYTSN
B2: Beta-glucanase wild type, P07980 (protein)
chain: MKRVLLILVTGLFMSLCGITSSVSAQTGGSFFEPFNSYNSGLWQKADGYSNGDMFNCTWRANNVSMTSLGEMRLALTSPSYNKFDCGENRSVQTYGYGLYEVRMKPAKNTGIVSSFFTYTGPTEGTPWDEIDIEFLGKDTTKVQFNYYTNGAGNHEKFADLGFDAANAYHTYAFDWQPNSIKWYVDGQLKHTATTQIPAAPGKIMMNLWNGTGVDDWLGSYNGVNPIYAHYDWMRYRKK

Settings: pH 6, Thermal, DSC, Sodium cacodylate 2 mM, reversible: yes(>80%), whole UniProt chain shown; for unfolding free energy: 25 °C
[1] = Paenibacillus macerans, CaCl2 1 mM

Row | Protein | unfolding free energy [1] [kcal/mol] | unfolding free energy (Paenibacillus macerans) [kcal/mol] | Tm [1] | unfolding enthalpy (calorimetric) [1] | Tm (Paenibacillus macerans) [°C] | unfolding enthalpy (calorimetric) (Paenibacillus macerans) [kcal/mol] | Tm (Bacillus amyloliquefaciens, CaCl2 1 mM) [°C] | Tm (Bacillus amyloliquefaciens) [°C]
1 | B1 | 9 | 6.1 | 50.8 °C and 50.5 °C | 139 kcal/mol and 156 kcal/mol | 44.5 | 119 | – | –
2 | B2 | – | – | – | – | – | – | 58.9 | 48.7
